pKd: −log10 of the molar value.
Legend:
[1] = target: His-tagged human recombinant FcγRIa (human) (UniProt P12314); assay: SPR, His-tagged FcγRIa captured on an anti-His chip, antibody injected
[2] = target: human FcγRIa, cell surface-expressed (human) (UniProt P12314); assay: flow cytometry, ExpiCHO-S cells transfected with human FcγRIa
[3] = target: recombinant human OX40 (Acro Biosystems, cat. no. OXO-H5224) (human) (UniProt P43489); assay: BLI cross-block; competitor (immobilized 1st Ab): IgG1-CD134-11D4
[4] = target: recombinant human OX40 (Acro Biosystems, cat. no. OXO-H5224) (human) (UniProt P43489); assay: BLI cross-block; competitor (immobilized 1st Ab): IgG1-CD134-012
[5] = target: recombinant human OX40 (Acro Biosystems, cat. no. OXO-H5224) (human) (UniProt P43489); assay: BLI cross-block; competitor (immobilized 1st Ab): IgG1-CD134-003-HC6LC2-RR
[6] = target: human OX40 with mouse CRD1 (human with mouse CRD1) (UniProt P43489); assay: flow cytometry, ExpiCHO-S cells with human OX40 carrying mouse CRD1
[7] = target: recombinant human OX40 (Acro Biosystems, cat. no. OXO-H5224) (human) (UniProt P43489); assay: BLI cross-block; competitor (immobilized 1st Ab): IgG1-CD134-ABBV368
[8] = target: human OX40, cell surface-expressed (human) (UniProt P43489); assay: flow cytometry, activated CD4+ T cells, donor 1
[9] = target: recombinant human OX40 (Acro Biosystems, cat. no. OXO-H5224) (human) (UniProt P43489); assay: BLI cross-block; competitor (immobilized 1st Ab): IgG1-CD134-h3C8
[10] = target: human OX40, cell surface-expressed (human) (UniProt P43489); assay: flow cytometry, activated CD4+ T cells, donor 2
[11] = target: human OX40, cell surface-expressed (human) (UniProt P43489); assay: flow cytometry, activated CD4+ T cells, mean of 3 donors
[12] = target: recombinant human OX40 (Acro Biosystems, cat. no. OXO-H5224) (human) (UniProt P43489); assay: BLI cross-block; competitor (immobilized 1st Ab): IgG1-CD134-Hu106
[13] = target: human OX40, cell surface-expressed (human) (UniProt P43489); assay: flow cytometry, activated CD4+ T cells, donor 3
[14] = target: recombinant human OX40 (Acro Biosystems, cat. no. OXO-H5224) (human) (UniProt P43489); assay: BLI cross-block; competitor (immobilized 1st Ab): IgG1-CD134-IBI101
[15] = target: recombinant human OX40 (Acro Biosystems, cat. no. OXO-H5224) (human) (UniProt P43489); assay: BLI cross-block; competitor (immobilized 1st Ab): IgG1-CD134-A4453
[16] = target: recombinant human OX40 (Acro Biosystems, cat. no. OXO-H5224) (human) (UniProt P43489); assay: BLI cross-block; competitor (immobilized 1st Ab): IgG1-CD134-INCAGN1949
[17] = target: human OX40, cell surface-expressed (human) (UniProt P43489); assay: flow cytometry, activated CD8+ T cells, mean of 3 donors
[18] = target: recombinant human OX40 (Acro Biosystems, cat. no. OXO-H5224) (human) (UniProt P43489); assay: BLI cross-block; competitor (immobilized 1st Ab): IgG1-CD134-RG7888
[19] = target: human OX40, cell surface-expressed (human) (UniProt P43489); assay: flow cytometry, activated CD8+ T cells, donor 3
[20] = target: recombinant human OX40 (Acro Biosystems, cat. no. OXO-H5224) (human) (UniProt P43489); assay: BLI cross-block; competitor (immobilized 1st Ab): IgG1-CD134-007
[21] = target: recombinant human OX40 (Acro Biosystems, cat. no. OXO-H5224) (human) (UniProt P43489); assay: BLI cross-block; competitor (immobilized 1st Ab): IgG1-CD134-SF2
[22] = target: recombinant human OX40 (Acro Biosystems, cat. no. OXO-H5224) (human) (UniProt P43489); assay: BLI cross-block; competitor (immobilized 1st Ab): IgG1-CD134-003
[23] = target: recombinant human OX40 (Acro Biosystems, cat. no. OXO-H5224) (human) (UniProt P43489); assay: BLI cross-block; competitor (immobilized 1st Ab): IgG1-CD134-GBR830
[24] = target: cynomolgus monkey OX40, cell surface-expressed (cynomolgus monkey); assay: flow cytometry, HEK293F cells with cynomolgus monkey OX40
[25] = target: recombinant human OX40 (Acro Biosystems, cat. no. OXO-H5224) (human) (UniProt P43489); assay: BLI, Ab on AHC sensor, OX40 analyte
[26] = target: human OX40, cell surface-expressed (human) (UniProt P43489); assay: flow cytometry, HEK293F cells with human OX40
[27] = target: human OX40 with mouse CRD3 (human with mouse CRD3) (UniProt P43489); assay: flow cytometry, ExpiCHO-S cells with human OX40 carrying mouse CRD3
[28] = target: human OX40, cell surface-expressed (human) (UniProt P43489); assay: flow cytometry, activated CD8+ T cells, donor 2
[29] = target: recombinant human OX40 (Acro Biosystems, cat. no. OXO-H5224) (human) (UniProt P43489); assay: BLI cross-block; competitor (immobilized 1st Ab): IgG1-CD134-MEDI0562
[30] = target: recombinant human OX40 (Acro Biosystems, cat. no. OXO-H5224) (human) (UniProt P43489); assay: BLI cross-block; competitor (immobilized 1st Ab): IgG1-CD134-49B4-RRE
[31] = target: recombinant cynomolgus monkey OX40 (Acro Biosystems, cat. no. OXO-C5220) (cynomolgus monkey); assay: BLI, Ab on AHC sensor, OX40 analyte; * binding observed, less reliable fit
[32] = target: human OX40, cell surface-expressed (human) (UniProt P43489); assay: flow cytometry, activated CD8+ T cells, donor 1
[33] = target: human OX40, cell surface-expressed (human) (UniProt P43489); assay: flow cytometry, ExpiCHO-S cells with human OX40
[34] = target: human OX40 with mouse CRD4 (human with mouse CRD4) (UniProt P43489); assay: flow cytometry, ExpiCHO-S cells with human OX40 carrying mouse CRD4
human OX40 with mouse CRD4 (human with mouse CRD4), sequence (P43489 other isoform, or with tags, fused parts or gaps limits assumed): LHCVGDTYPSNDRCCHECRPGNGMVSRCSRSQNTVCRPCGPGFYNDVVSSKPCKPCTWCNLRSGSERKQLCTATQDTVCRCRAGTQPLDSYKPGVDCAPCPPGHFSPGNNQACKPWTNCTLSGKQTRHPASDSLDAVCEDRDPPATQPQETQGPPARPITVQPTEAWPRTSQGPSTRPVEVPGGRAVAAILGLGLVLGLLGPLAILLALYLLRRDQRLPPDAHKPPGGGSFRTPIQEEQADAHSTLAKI

cynomolgus monkey OX40, cell surface-expressed (cynomolgus monkey), sequence (P43489 other isoform, or with tags, fused parts or gaps limits assumed): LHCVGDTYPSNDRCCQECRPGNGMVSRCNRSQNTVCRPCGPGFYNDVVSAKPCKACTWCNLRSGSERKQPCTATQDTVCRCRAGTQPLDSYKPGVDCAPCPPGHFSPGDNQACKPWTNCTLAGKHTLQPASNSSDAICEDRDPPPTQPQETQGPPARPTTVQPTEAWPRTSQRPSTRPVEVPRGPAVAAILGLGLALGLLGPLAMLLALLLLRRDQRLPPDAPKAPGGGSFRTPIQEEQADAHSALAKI
IgG1-CD134-IBI101 (antibody), sequence (VH): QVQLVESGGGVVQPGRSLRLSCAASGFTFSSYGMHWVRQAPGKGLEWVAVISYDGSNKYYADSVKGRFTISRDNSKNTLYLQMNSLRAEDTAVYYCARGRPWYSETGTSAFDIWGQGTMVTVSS
IgG1-CD134-IBI101 (antibody), sequence (VL): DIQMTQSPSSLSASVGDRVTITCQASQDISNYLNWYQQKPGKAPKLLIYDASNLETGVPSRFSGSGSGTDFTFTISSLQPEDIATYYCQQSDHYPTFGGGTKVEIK
human OX40 with mouse CRD1 (human with mouse CRD1), sequence (P43489 other isoform, or with tags, fused parts or gaps limits assumed): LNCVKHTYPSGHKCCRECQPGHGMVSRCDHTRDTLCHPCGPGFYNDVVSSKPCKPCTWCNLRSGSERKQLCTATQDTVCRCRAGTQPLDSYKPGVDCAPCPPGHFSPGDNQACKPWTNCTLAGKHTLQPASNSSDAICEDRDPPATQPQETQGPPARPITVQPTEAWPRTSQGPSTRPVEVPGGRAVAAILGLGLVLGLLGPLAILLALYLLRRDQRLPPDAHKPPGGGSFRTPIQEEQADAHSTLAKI
recombinant human OX40 (Acro Biosystems, cat. no. OXO-H5224) (human), sequence (P43489 29-216 limits assumed): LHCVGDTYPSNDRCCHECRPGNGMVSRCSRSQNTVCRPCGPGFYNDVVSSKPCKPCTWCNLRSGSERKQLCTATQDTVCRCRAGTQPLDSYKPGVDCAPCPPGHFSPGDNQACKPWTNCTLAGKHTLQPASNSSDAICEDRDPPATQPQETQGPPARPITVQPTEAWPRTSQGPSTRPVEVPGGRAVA
human OX40, cell surface-expressed (human), sequence (P43489 29-277): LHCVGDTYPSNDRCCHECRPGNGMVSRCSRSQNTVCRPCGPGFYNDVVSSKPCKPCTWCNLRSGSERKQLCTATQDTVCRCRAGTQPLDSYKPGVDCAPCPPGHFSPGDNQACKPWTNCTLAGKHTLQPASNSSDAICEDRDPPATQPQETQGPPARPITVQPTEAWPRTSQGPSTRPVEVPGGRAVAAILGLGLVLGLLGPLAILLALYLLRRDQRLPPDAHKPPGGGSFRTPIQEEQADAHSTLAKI
recombinant cynomolgus monkey OX40 (Acro Biosystems, cat. no. OXO-C5220) (cynomolgus monkey), sequence (P43489 other isoform, or with tags, fused parts or gaps limits assumed): as the sequence (P43489 29-216 limits assumed) above, with H16Q, S29N, S50A, P55A, L70P, A145P, I159T, G173R, G183R, R185P counted along it
human OX40 with mouse CRD3 (human with mouse CRD3), sequence (P43489 other isoform, or with tags, fused parts or gaps limits assumed): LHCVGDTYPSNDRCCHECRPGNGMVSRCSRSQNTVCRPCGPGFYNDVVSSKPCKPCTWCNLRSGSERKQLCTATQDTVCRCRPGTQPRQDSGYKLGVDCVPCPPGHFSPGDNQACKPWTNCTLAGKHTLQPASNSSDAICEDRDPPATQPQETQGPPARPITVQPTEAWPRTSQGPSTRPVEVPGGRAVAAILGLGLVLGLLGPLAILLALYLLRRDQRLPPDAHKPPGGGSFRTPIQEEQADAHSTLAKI
His-tagged human recombinant FcγRIa (human), sequence (P12314 16-288 limits assumed): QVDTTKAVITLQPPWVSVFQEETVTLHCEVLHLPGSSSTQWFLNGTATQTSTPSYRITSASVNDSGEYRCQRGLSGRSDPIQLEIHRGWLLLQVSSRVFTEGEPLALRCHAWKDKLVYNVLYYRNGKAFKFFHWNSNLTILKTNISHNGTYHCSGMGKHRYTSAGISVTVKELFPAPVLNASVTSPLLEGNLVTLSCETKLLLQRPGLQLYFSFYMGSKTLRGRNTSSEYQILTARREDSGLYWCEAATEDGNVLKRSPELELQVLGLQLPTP
human FcγRIa, cell surface-expressed (human), sequence (P12314 16-374): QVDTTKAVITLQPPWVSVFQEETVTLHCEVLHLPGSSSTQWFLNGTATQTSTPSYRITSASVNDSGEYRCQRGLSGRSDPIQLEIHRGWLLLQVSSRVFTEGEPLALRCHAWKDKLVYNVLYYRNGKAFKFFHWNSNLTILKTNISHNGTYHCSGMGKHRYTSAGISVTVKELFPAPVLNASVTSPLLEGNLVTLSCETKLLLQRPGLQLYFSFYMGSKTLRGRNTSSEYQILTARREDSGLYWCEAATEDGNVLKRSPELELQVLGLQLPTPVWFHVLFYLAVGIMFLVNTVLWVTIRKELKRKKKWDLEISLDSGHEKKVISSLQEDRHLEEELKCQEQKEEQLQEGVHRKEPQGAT

Row | Substance | corrected association response [3] [nm] | corrected association response [4] [nm] | corrected association response [5] [nm] | EC50 (read off the curve) [6] [µg/mL] | corrected association response [7] [nm] | corrected association response [9] [nm] | corrected association response [12] [nm] | corrected association response [14] [nm] | corrected association response [15] [nm] | corrected association response [16] [nm] | corrected association response [18] [nm] | corrected association response [20] [nm] | corrected association response [21] [nm] | corrected association response [22] [nm] | corrected association response [23] [nm] | EC50 (read off the curve) [24] [µg/mL] | pKd [25] | EC50 (read off the curve) [26] [µg/mL] | corrected association response [29] [nm] | corrected association response [30] [nm] | other results
1 | IgG1-CD134-RG7888-K322A-E345R (antibody) | – | – | – | – | – | – | – | – | – | – | – | – | – | – | – | – | – | – | – | – | EC50 (read off the curve) [1]: 30 nM; EC50 (read off the curve) [2]: 0.6 µg/mL
2 | IgG1-CD134-IBI101 (antibody) | 0.15 | 0.82 | 1.23 | 0.08 | -0.02 | -0.03 | -0.02 | 0.01 | 0.24 | 0.02 | 0.31 | 0.02 | 0.07 | 0.74 | 0.01 | 0.08 | 7.28 | 0.09 | 0.26 | 0 | EC50 [8]: 0.101 µg/mL; EC50 [10]: 0.1 µg/mL; EC50 [11]: 0.104 µg/mL; EC50 [13]: 0.111 µg/mL; EC50 [17]: 0.727 µg/mL; EC50 [19]: 0.192 µg/mL; EC50 (read off the curve) [27]: 0.06 µg/mL; EC50 [28]: 1.86 µg/mL; pKd [31]: 6.40; EC50 [32]: 0.128 µg/mL
3 | IgG1-CD134-INCAGN1949 (antibody) | 0.11 | 0.73 | 1.74 | 0.08 | -0.03 | -0.02 | -0.01 | 0.01 | 0.25 | 0 | 0.01 | 0.55 | 0.02 | 1.39 | 0.01 | 0.1 | 6.80 | 0.06 | 0.01 | 0 | EC50 (read off the curve) [33]: 0.07 µg/mL; EC50 (read off the curve) [34]: 0.08 µg/mL; pKd [31]: 6.64
4 | IgG1-CD134-Hu106 (antibody) | 0.13 | 0.8 | 1.39 | 0.06 | -0.01 | 0.01 | 0.05 | 0.01 | 0.29 | 0 | 0.02 | 0.05 | 0.03 | 1.06 | 0.01 | 0.06 | 8.03 | 0.08 | 0.31 | -0.01 | EC50 (read off the curve) [33]: 0.05 µg/mL; EC50 (read off the curve) [34]: 0.06 µg/mL; koff [25]: 0.0024 s⁻¹; kon [25]: 260000 M⁻¹ s⁻¹; EC50 (read off the curve) [27]: 0.06 µg/mL; pKd [31]: 6.62; koff [31]: 0.029 s⁻¹; kon [31]: 120000 M⁻¹ s⁻¹
